Experimental data from patent US20220276234A1, “POINT-OF-CARE IMMUNOASSAY FOR QUANTITATIVE SMALL ANALYTE DETECTION” (priority 2011, published 2022).

What was measured:
[1] = compared with parent compound aripiprazole and dehydro aripiprazole; cited from earlier work
[2] = in vivo; cited from earlier work
[3] = cited from earlier work
B7-HTHC immunocomplex = test: Sandwich type ELISA assay with selected derived B7-HTHC aptamers (5' biotin, HRP-streptavidin, TMB); type: binding
Method: The 11 aptamers were synthesized with a 5′ biotin such that they could be detected in ELISA-type assays. The aptamers were tested for their ability to bind to the target in two ways. In both assays, the antibody was coated onto the walls of a microtiter plate. In the first assay, HTHC was added to the antibody. After washing away unbound HTHC, the aptamers were added. In the second assay, the aptamers were added to the wells with HTHC simultaneously. In both assays, after washing away unbound aptamer, the plates were incubated with HRP-streptavidin, and then assayed for the amount of aptamer that remained bound to the immunocomplex using a colorimetric TMB assay.

B7 antibody alone = test: Proprietary qPCR-based aptamer binding assay, immune complexes anchored to solid support; settings: qPCR amplification, FIG. 11
Method: (§1) Binding selectivity was tested in varying salt conditions to determine optimal conditions for selection. Using a proprietary binding assay, the aptamers were allowed to incubate with immune complexes that were anchored to a solid support. After the incubation period, the immune complexes were washed, and the amount of aptamer binding was assayed via qPCR. Increased aptamer binding to the immune complex allowed faster detection of DNA amplification.
(§2) Of the aptamers tested, only one aptamer satisfied the following requirements: (1) binding to the correct immune complex, (2) no binding to the antibody alone, and (3) no binding to the antibody and the incorrect metabolite. FIG. 11 is a qPCR amplification curve showing the binding of Aptamer B7C4 with the immune complex B7-HTHC, the immune complex B7-THC, the B7 antibody alone, and a negative control. Theoretically, every additional cycle indicates 2 times fewer bound aptamer molecules.

B7-HTHC immune complex [4] = test: as above; settings: qPCR amplification, FIG. 11
Method: as §1, §2

B7-THC immune complex = test: as above; settings: qPCR amplification, FIG. 11
Method: as §1, §2

B7-HTHC immune complex [5] = test: Capillary electrophoresis test of candidate aptamers; type: binding; settings: electropherogram peak shift, FIGS. 10A and 10B
Method: Following completion of aptamer selection, aptamers from the first, fifth, and tenth rounds of Structure Switching SELEX were sequenced using standard Next-Generation Sequencing (NGS) methods (AKESOgen). Of the sequences obtained by NGS, ten sequences per aptamer were tested using Capillary Electrophoresis (CE) and in a proprietary assay utilizing real-time PCR.
The candidate aptamers were initially tested using capillary electrophoresis. Of the 10 B7-HTHC aptamers, 3 were identified as candidate binders. […] This is likely due to the difference between the composition of the buffer required for capillary electrophoresis and the composition of the buffer used during the SELEX selection process.

[6] = separate incubation: aptamers added after HTHC and washing, FIG. 16A
[7] = simultaneous incubation: aptamers added with HTHC, FIG. 16B

O=C(O)CCCOc1ccc2c(c1)NC(=O)CC2 [OPC-3373]
Water solubility [1]: much more water soluble

CCCCCc1cc(O)c2c(c1)OC(C)(C)[C@@H]1CCC(C)=C[C@@H]21 [THC, Delta-9-tetrahydrocannabinol]
Excreted in the feces [2]: More than 55%
Excreted in the urine [2]: approximately 20%

CN1CCCC1c1cccnc1 (stereo not shown) [nicotine]
Time to reach the brain after inhalation ([3]; crosses the blood-brain barrier): 10 to 20 s
Elimination half-life in the body ([3]; in vivo): approximately two

B1: Aptamer 493: selected derived B7-HTHC DNA aptamer (nucleic acid)
DNA: CCTGTCAGTTGCTTACCGGGCACGAGTACGAGACTGCAGGATTCTTCTACACTGCACCCCATGTAGTGTCCTTGCTC
modifications: DNA, backbone and methylation of C not given here
Normalized absorption signal, aptamer binding to immunocomplex (B7-HTHC immunocomplex; [6]): the opposite behavior compared to that of aptamer 444
Normalized absorption signal, aptamer binding to immunocomplex (B7-HTHC immunocomplex; [7]): the opposite behavior compared to that of aptamer 444

B2: B7C4: parent DNA aptamer selective for the B7-HTHC immune complex (nucleic acid)
DNA: CCTGTCAGTTGCTTACCGGGCACGAGTACGAGACTGCAGGATTCTTCTACACTGCCCCCCATGTAGTGTCCTTGCTCGT
modifications: DNA, backbone not given here; further chemistry not fully specified
Aptamer binding to B7 antibody alone (B7 antibody alone): minimal binding
Aptamer binding to B7 antibody alone (B7 antibody alone; listed as B7C4-HTHC): residual binding affinity
Aptamer binding to B7-HTHC immune complex (B7-HTHC immune complex [4]): significant binding
Aptamer binding to B7-HTHC immune complex (B7-HTHC immune complex [4]; listed as B7C4-HTHC): high affinity
Aptamer binding to B7-THC immune complex (B7-THC immune complex): minimal binding

B3: Aptamer 815: selected derived B7-HTHC DNA aptamer, family 2 (nucleic acid)
DNA: CCTGTCAGTTGCTTACCGGGCACGAGTACTAGACTGCAGGATTCTTCTACACTGCCCCCCATGTAGTGTCCTTGCTCGT
modifications: DNA, backbone and methylation of C not given here
Normalized absorption signal, aptamer binding to immunocomplex (B7-HTHC immunocomplex; [6]): high binding
Normalized absorption signal, aptamer binding to immunocomplex (B7-HTHC immunocomplex; [7]): lost this ability

B4: Aptamer 368.2: selected derived B7-HTHC DNA aptamer (nucleic acid)
DNA: CCTGTCAGTTGCTTACCGGGCACGAGTACGAGACTGCAGGATTCTTCTACACTGCTCCCCATGTAGTGTCCTTGCTCGT
modifications: DNA, backbone and methylation of C not given here
Normalized absorption signal, aptamer binding to immunocomplex (B7-HTHC immunocomplex; [6]): significant binding
Normalized absorption signal, aptamer binding to immunocomplex (B7-HTHC immunocomplex; [7]): significant binding

B5: Aptamer 444: selected derived B7-HTHC DNA aptamer (nucleic acid)
DNA: CCTGTCAGTTGCTTACCGGGCACGAGTACGAGACTGCAGGATTCTTCTACACTGCGCCCCATGTAGTGTCCTTGCTCGT
modifications: DNA, backbone and methylation of C not given here
Normalized absorption signal, aptamer binding to immunocomplex (B7-HTHC immunocomplex; [6]): high sensitivity
Normalized absorption signal, aptamer binding to immunocomplex (B7-HTHC immunocomplex; [7]): reduced sensitivity

B6: B7C1: candidate DNA aptamer for antibody B7 and HTHC (nucleic acid)
DNA: CCTGTCAGTTGCTTACCGGCCCAGGTGTAGTAACTGCAGGGATTCTTAACGTAGCTACCGGGTGTAGTGTCCTTGCTCGT
modifications: DNA, backbone not given here; further chemistry not fully specified
notes: candidate DNA aptamer for antibody B7 and HTHC
Binding to immune complex by capillary electrophoresis (B7-HTHC immune complex [5]): peak shifts associated with the introduction of the immune complex
